In patent US11674962B2, “Therapeutic and diagnostic methods for cancer” (Genentech, Inc., priority 2017, dated 2023):
Values joined by “and” are separate entries in the source; they are usually repeats but may differ in a detail not shown here. Identical values can stand only once.

How the values were obtained:
[1] = system: locally advanced or metastatic non-small cell lung cancer (NSCLC); assay: POPLAR phase II clinical trial (NCT01903993): atezolizumab vs docetaxel, outcomes by bTMB score; assay type: in vivo, human; conditions: for OS HR (95% CI) / PFS HR (95% CI) / OS HR / PFS HR: atezolizumab vs docetaxel
Method: A blood-based assay was used to evaluate the association between clinical response to treatment with atezolizumab (MPDL3280A) and blood tumor mutational burden (bTMB) score in patients with non-small cell lung cancer (NSCLC) enrolled in two clinical trials, a phase II clinical trial, POPLAR (Clinical Trial ID No.: NCT01903993), and a phase III clinical trial, OAK (Clinical Trial ID No.: NCT02008227), in which atezolizumab was administered as a monotherapy.
Pre-treatment blood samples from patients with NSCLC who were enrolled in the POPLAR and/or the OAK studies, in which atezolizumab was administered as a monotherapy, were evaluated for bTMB score and/or maximum somatic allele frequency (MSAF).
The POPLAR (Clinical Trial ID No.: NCT01903993) patient population evaluated for bTMB score consisted of 273 patients. Patients were eligible for enrollment in the POPLAR study if they had locally advanced or metastatic (e.g., stage IIIB, stage IV, or recurrent) non-small cell lung cancer (NSCLC); disease progression during or following treatment with a prior platinum-containing regimen for locally advanced, unresectable/inoperable, or metastatic NSCLC, or disease recurrence within 6 months of treatment with a platinum-based adjuvant/neoadjuvant regimen; measurable disease, as defined by RECIST v1.1; and an Eastern Cooperative Oncology Group (ECOG) performance status of 0 or 1. Participants were randomized to receive either atezolizumab at a dose of 1200 mg intravenously every three weeks or docetaxel 75 mg per meter square (mg/m^2) intravenously every three weeks. Treatment with atezolizumab could be continued as long as participants were experiencing clinical benefit, i.e., in the absence of unacceptable toxicity or symptomatic deterioration attributed to disease progression.
Analysis of bTMB was performed retrospectively. Progression-free survival (PFS) was defined as the time between date of randomization and date of first documented disease progression as assessed by the investigator using RECIST v.1.1 or death from any cause, whichever occurred first. Overall survival (OS) was defined as the time between the date of randomization until death due to any cause. Treatment arms were compared for OS and PFS individually using a univariate Cox regression model without stratification in the biomarker evaluable-population (BEP) and their subgroups or using a stratified (by randomization stratification factors) Cox model in the ITT population. No multiplicity correction was applied to p-values or confidence intervals (CI). Kaplan-Meier methodology was used to estimate median OS and PFS and construct survival curves.
In the POPLAR ITT population (N=287), 273 samples were available for analysis. Of these, 6 were removed for sample contamination >1%; 9 were removed for median exon coverage <800×; and 47 were removed for low MSAF<1%.
The POPLAR BEP (N=211) includes 15 patients with EGFR mutation or ALK rearrangement, and 196 without known alterations.
To identify somatic mutations and calculate a bTMB score, whole blood samples obtained from each patient (collected in EDTA or Streck tubes) were processed through a series of spins to isolate plasma, from which cell free DNA (cfDNA) was extracted for sequencing analysis. Specifically, at least 20 ng purified cfDNA was used for library construction. Next-generation sequencing libraries using fragment barcodes and hybrid capture were constructed to analyze and sequence a pre-determined set of 394 genes that covered approximately 1.125 Mb of the exome. Specifically, purified libraries were hybrid captured using a 394-gene bait set and then further purified, pooled and loaded on an ILLUMINA® HISEQ® 4000 sequencing system. Sequenced libraries were aligned and sorted. […]

[2] = system: treatment-naive, locally advanced or metastatic (stage IIIB-IVB) NSCLC; assay: B-F1RST phase II trial (NCT02848651) interim analysis: safety (adverse events) of atezolizumab; assay type: in vivo, human
From the text: The B-F1 RST (Clinical Trial ID No.: NCT02848651) patient population being evaluated for bTMB score consists of approximately 150 patients at 20 to 25 study sites (N=153). Patients are eligible for enrollment in the B-F1 RST study if they have treatment-naïve, locally advanced or metastatic (e.g., stage IIIB-IVB) NSCLC; measurable disease, as defined by RECIST v1.1; and an ECOG performance status of 0 or 1. Exclusion criteria include sensitizing EGFR mutations or ALK rearrangements; active brain metastases requiring treatment; leptomeningeal disease; other malignancies within 5 years of enrollment; HBV, HCV, or HIV infection; or history of autoimmune disorder. Participants are divided into cohorts based on bTMB score and receive atezolizumab at a dose of 1200 mg intravenously every three weeks. All patients undergo tumor assessment at baseline and every 6 weeks for the first 12 months following cycle 1, day 1, and then every 9 weeks therafter. Treatment with atezolizumab can be continued as long as participants were experiencing clinical benefit, i.e., in the absence of unacceptable toxicity or symptomatic deterioration attributed to disease progression. Tumor assessments continue until disease progression per RECIST v1.1 or loss of clinical benefit (investigator assessed), consent withdrawal, study discontinuation, study completion, or death. Mandatory blood samples are taken at baseline, during therapy, and at progression to evaluate changes in exploratory biomarkers. The interim analysis was prespecified to occur at 6 months after 50% of the patients have been enrolled, with a prespecified bTMB score of ≥16. The co-primary endpoints are the clinical efficacy of atezolizumab (as evaluated by investigator-assessed ORR per RECIST v1.1) and the relationship between bTMB and PFS benefit (as evaluated by investigator-assessed PFS per RECIST v1.1). The secondary objectives are safety and assessment of efficacy by investigator-assessed duration of response (DOR) and OS.
Of 78 treated patients in the interim analysis population (IAP) from the B-F1 RST study, 58 had adequate blood samples with sufficient detection of circulating tumor DNA (MSAF≥1%) and comprised the biomarker-evaluable population (BEP). One patient of the IAP was never treated and therefore not safety- or efficacy-evaluable. A bTMB score of 16 (prevalence, 19% [11/58]) was prespecified to evaluate clinical efficacy in the BEP (bTMB high, ≥16; bTMB low, <16). Statistical tests were 2-sided at a 0.1 level and 90% confidence interval.

[3] = bTMB score subgroup ≥10 (96 patients)
[4] = bTMB score subgroup ≥16 (63 patients)
[5] = bTMB score subgroup ≥20 (42 patients)

## atezolizumab
[1]; BEP (n = 211)
  OS HR (95% CI): 0.68
  PFS HR (95% CI): 0.9
[1]; ITT (n = 287)
  OS HR (95% CI): 0.69 and 0.73
  PFS HR (95% CI): 0.92 and 0.94
[1]; [3]
  OS HR: 0.59
  PFS HR: 0.68
[1]; [4]
  OS HR: 0.56
  PFS HR: 0.57
[1]; [5]
  OS HR: 0.51
  PFS HR: 0.58
[1]; bTMB≥16, per treatment arm
  median OS: 13.0 months
  median PFS: 4.2 months
[1]; reference bTMB score of 18 (Dx+, n=52)
  PFS HR: 0.57
[2]; Patients in IAP (n = 78)
  Treatment-related Grade 5 AEs: ^bNo treatment-related Grade 5 AEs were reported.
[2]; Patients in IAP (n = 78), reported as death, cardiac arrest, pulmonary embolism (n = 1 each)
  Grade 5 AEs, any cause: 3 (3.8%) n (%)
[2]; in vivo
  AE of special interest: Adrenal insufficiency: 1 (1.3%) n (%)
  AEs leading to discontinuation, patients: 15.4%
  AEs leading to treatment discontinuation: 12 (15.4%) n (%)
  AEs, any cause: 78 (100.0%) n (%)
  Grade 3-4 AEs, any cause: 40 (51.3%) n (%)
  SAEs, any cause: 35 (44.9%) n (%)
  Treatment-related AEs: 59 (75.6%) n (%)
  Treatment-related Grade 3-4 AEs: 15 (19.2%) n (%)
  Treatment-related SAEs: 12 (15.4%) n (%)
  Treatment-related serious AEs, patients: 14.1%
  tolerability: well tolerated
  treatment-related grade 3/4 AEs, patients: 16.7%
